Results as given in publication PMC5656893, “Regioselective para‐Carboxylation of Catechols with a Prenylated Flavin Dependent Decarboxylase” (Angewandte Chemie (International Ed. in English), 2017).

How the values were obtained:
[1] = substrate: O=C(O)c1ccc(O)c(O)c1; test: decarboxylation kinetics, purified enzyme reconstituted in vitro with prFMN; assay type: biochemical, Enterobacter cloacae; conditions: apparent; prFMN iminium cofactor, after oxidative maturation
[2] = substrate: O=C(O)c1ccc(O)c(O)c1; test: as above; assay type: biochemical, Klebsiella pneumoniae; conditions: apparent; prFMN iminium cofactor, after oxidative maturation

B1: EcAroY (Enterobacter cloacae) (protein)
chain: MQNPINDLRSAIALLQRHPGHYIETDHPVDPNAELAGVYRHIGAGGTVKRPTRTGPAMMFNSVKGYPGSRILVGMHASRERAALLLGCVPSKLAQHVGQAVKNPVAPVVVPASQAPCQEQVFYADDPDFDLRKLLPAPTNTPIDAGPFFCLGLVLASDPEDTSLTDVTIHRLCVQERDELSMFLAAGRHIEVFRKKAEAAGKPLPVTINMGLDPAIYIGACFEAPTTPFGYNELGVAGALRQQPVELVQGVAVKEKAIARAEIIIEGELLPGVRVREDQHTNTGHAMPEFPGYCGEANPSLPVIKVKAVTMRNHAILQTLVGPGEEHTTLAGLPTEASIRNAVEEAIPGFLQNVYAHTAGGGKFLGILQVKKRQPSDEGRQGQAALIALATYSELKNIILVDEDVDIFDSDDILWAMTTRMQGDVSITTLPGIRGHQLDPSQSPDYSTSIRGNGISCKTIFDCTVPWALKARFERAPFMEVDPTPWAPELFSDKK
notes: recombinant, purified from E. coli (UbiX co-expressed), reconstituted in vitro with prFMN and oxidised; UbiD family; homohexamer; about 495 residues
- Km [1]: 61 ± 17 µM
- kcat [1]: 4.6±0.4 s^-1 (printed as v max ^app)

B2: KpAroY (Klebsiella pneumoniae subsp. pneumoniae MGH 78578) (protein)
chain: MTAPIQDLRDAIALLQQHDNQYLETDHPVDPNAELAGVYRHIGAGGTVKRPTRIGPAMMFNNIKGYPHSRILVGMHASRQRAALLLGCEASQLALEVGKAVKKPVAPVVVPASSAPCQEQIFLADDPDFDLRTLLPAPTNTPIDAGPFFCLGLALASDPDDASLTDVTIHRLCVQGRDELSMFLAAGRHIEVFRQKAEAAGKPLPITINMGLDPAIYIGACFEAPTTPFGYNELGVAGALRQRPVELVQGVSVPEKAIARAEIVIEGELLPGVRVREDQHTNSGHAMPEFPGYCGGANPSLPVIKVKAVTMRNNAILQTLVGPGEEHTTLAGLPTEASIWNAVEAAIPGFLQNVYAHTAGGGKFLGILQVKKRQPADEGRQGQAALLALATYSELKNIILVDEDVDIFDSDDILWAMTTRMQGDVSITTIPGIRGHQLDPSQTPEYSPSIRGNGISCKTIFDCTVPWALKSHFERAPFADVDPRPFAPEYFARLEKNQGSAK
notes: recombinant, purified from E. coli (UbiX co-expressed), reconstituted in vitro with prFMN and oxidised; UbiD family; about 495 residues
- Km [2]: 96 ± 23 µM
- kcat [2]: 4.7±0.4 s^-1 (printed as v max ^app)
